# Test results: PMC3310821, “Inactivation of Staphylococcal Phenol Soluble Modulins by Serum Lipoprotein Particles” (PLoS Pathogens, 2012)
# Ends that are not written are not given here. * marks the point of attachment. For = O=C*
# B1: FITC-labeled PSMα3 (peptide)
# peptide: For-MEFVAKLFKFFKDLLGKFLGNN
# modifications: also: FITC label, site not given here
# notes: labeled by incubating 1 mg/ml PSMα3 with 100 µg/ml FITC in 0.1 M sodium carbonate buffer pH 9.6; also called PSMα3-FITC
# Target: the molecule itself
# Assay: SEC; 100 µg/ml PSMα3-FITC on Superdex 200 10/300GL equilibrated with PBS; OD492 nm
protein,measurement,value
B1,binding result,binds
